Experimental data: patent US20250163167A1 (SYNTHEKINE, published 2025)

T1: human IL-10 receptor (hIL-10R alpha and beta chains) on HEK-Blue IL-10 reporter cells (human, UniProt Q13651 22-578; Q08334 20-325)
T1 sequence 1: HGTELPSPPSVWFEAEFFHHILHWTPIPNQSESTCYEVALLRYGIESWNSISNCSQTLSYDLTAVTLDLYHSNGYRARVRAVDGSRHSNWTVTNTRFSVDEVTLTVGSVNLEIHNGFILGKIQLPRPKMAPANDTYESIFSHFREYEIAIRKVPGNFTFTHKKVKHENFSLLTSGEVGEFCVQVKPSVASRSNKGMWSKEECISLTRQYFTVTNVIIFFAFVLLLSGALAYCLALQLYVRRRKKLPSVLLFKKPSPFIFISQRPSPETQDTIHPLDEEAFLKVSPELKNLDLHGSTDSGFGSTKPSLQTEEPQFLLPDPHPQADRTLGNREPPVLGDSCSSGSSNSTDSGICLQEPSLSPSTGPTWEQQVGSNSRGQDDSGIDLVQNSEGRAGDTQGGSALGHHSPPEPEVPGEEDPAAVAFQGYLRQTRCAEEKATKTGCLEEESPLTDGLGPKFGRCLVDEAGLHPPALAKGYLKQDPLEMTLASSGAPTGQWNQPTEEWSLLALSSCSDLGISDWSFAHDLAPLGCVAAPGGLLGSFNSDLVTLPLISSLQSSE
T1 sequence 2: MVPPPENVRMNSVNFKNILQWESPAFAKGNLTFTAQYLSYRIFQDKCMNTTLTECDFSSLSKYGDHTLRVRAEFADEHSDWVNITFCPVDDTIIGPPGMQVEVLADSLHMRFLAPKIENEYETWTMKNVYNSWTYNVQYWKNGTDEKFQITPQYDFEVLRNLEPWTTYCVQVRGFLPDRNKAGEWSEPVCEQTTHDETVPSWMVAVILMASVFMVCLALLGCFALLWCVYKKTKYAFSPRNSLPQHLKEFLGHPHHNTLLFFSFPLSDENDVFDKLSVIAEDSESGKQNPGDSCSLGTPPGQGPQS


Target: T1, human IL-10 receptor (hIL-10R alpha and …)
Assay: cell-based or functional assay

Row | Binder | Abs 630 (25 nM) | Abs 630 (100 nM)
1 | IL10R binding molecule of SEQ ID NO: 286 (bispecific antibody) QVQLQESGGGSVQAGGSLRLSCTVSGYTYSSNCMGWFRQAPGKEREGVATIYTGGGNTYYADSVKGRFTISQDNAKNTVYLQMNNLKPEDTAMYYCAAEPLSRVYGGSCPTPTFDYWGQGTQVTVSSGGGSQVQLQESGGGSVQAGGSLRLSCAASRYTYNSYCMGWFRQAPGKEREGVATIDSDGMTRYADSVKGRFTISKDNAKNTLYLQMNSLKPEDTAMYYCAADADCTIAAMTTNPLGQGTQVTVSSASHHHHHH | 0.46 Abs 630 | 0.39 Abs 630
2 | IL10R binding molecule of SEQ ID NO: 292 (bispecific antibody) QVQLQESGGGSVQAGGSLRLSCGASGYTYSSYCMGWFRQVPGKEREGVAVIDSDGSTSYADSVKGRFTISKDNGKNTLYLQMNSLKPEDTAMYYCAADLGHYRPPCGVLYLGMDYWGKGTQVTVSSGGGSQVQLQESGGGSVQAGGSLRLSCAASGYTYSSYCMGWFRQAPGKEREGVAHIDSDGSTSYADSVKGRFTISKDNAKNTLYLQMNSLKPEDTAMYYCAADPIPGPGYCDGGPNKYWGQGTQVTVSSASHHHHHH | 0.78 Abs 630 | 0.47 Abs 630
3 | IL10R binding molecule of SEQ ID NO: 280 (bispecific antibody) QVQLQESGGGSVQAGGSLRLSCAVSGYAYSTYCMGWFRQAPGKEREGVAAIDSGGSTSYADSVKGRFTISKDNAKNTLYLRMNSLKPEDTAMYYCAAVPPPPDGGSCLFLGPEIKVSKADFRYWGQGTQVTVSSGGGSQVQLQESGGGSVQAGGSLRLSCTVSRYTASVNYMGWFRQAPGKEREGVATIFTGAGTTYYANSVKGRFTISRDNAKNTAYLQMNSLKPEDTAIYYCAVDFRGGLLYRPAYEYTYRGQGTQVTVSSASHHHHHH | 0.49 Abs 630 | 0.37 Abs 630
4 | IL10R binding molecule of SEQ ID NO: 285 (bispecific antibody) QVQLQESGGGSVQAGGSLRLSCTVSGYTYSSNCMGWFRQAPGKEREGVATIYTGGGNTYYADSVKGRFTISQDNAKNTVYLQMNNLKPEDTAMYYCAAEPLSRVYGGSCPTPTFDYWGQGTQVTVSSGGGSQVQLQESGGGSVQAGGSLRLSCAASGYTYSSYCMGWFRQAPGKEREGVAHIDSDGSTSYADSVKGRFTISKDNAKNTLYLQMNSLKPEDTAMYYCAADPIPGPGYCDGGPNKYWGQGTQVTVSSASHHHHHH | 0.48 Abs 630 | 0.39 Abs 630
5 | IL10R binding molecule of SEQ ID NO: 282 (bispecific antibody) QVQLQESGGGSVQAGGSLRLSCAVSGYAYSTYCMGWFRQAPGKEREGVAAIDSGGSTSYADSVKGRFTISKDNAKNTLYLRMNSLKPEDTAMYYCAAVPPPPDGGSCLFLGPEIKVSKADFRYWGQGTQVTVSSGGGSQVQLQESGGGSVQAGGSLRLSCAASGYSYSSYCMGWFRQAPGKEREGVATIDSDGMTRYADSVKGRFTISKDNAKNTLYLQMNSLKPEDTAMYYCAAPLYDCDSGAVGRNPPYWGQGTQVTVSSASHHHHHH | 0.44 Abs 630 | 0.36 Abs 630
6 | IL10R binding molecule of SEQ ID NO: 294 (bispecific antibody) QVQLQESGGGSVQAGGSLRLSCGASGYTYSSYCMGWFRQVPGKEREGVAVIDSDGSTSYADSVKGRFTISKDNGKNTLYLQMNSLKPEDTAMYYCAADLGHYRPPCGVLYLGMDYWGKGTQVTVSSGGGSQVQLQESGGGSVQAGGSLRLSCTVSRYTASVNYMGWFRQAPGKEREGVATIFTGAGTTYYANSVKGRFTISRDNAKNTAYLQMNSLKPEDTAIYYCAVDFRGGLLYRPAYEYTYRGQGTQVTVSSASHHHHHH | 0.49 Abs 630 | 0.39 Abs 630
7 | IL10R binding molecule of SEQ ID NO: 284 (bispecific antibody) QVQLQESGGGSVQAGGSLRLSCTVSGYTYSSNCMGWFRQAPGKEREGVATIYTGGGNTYYADSVKGRFTISQDNAKNTVYLQMNNLKPEDTAMYYCAAEPLSRVYGGSCPTPTFDYWGQGTQVTVSSGGGSQVQLQESGGGSVQAGGSLRLSCAASGYTYSSGCMGWFRQAPGKEREAVAAINSDGSTSYADSVKGRFTISKDNAKNTLYLQMNSLKPEDTAMYYCAAEPYCSGGYPRWSVAEFGYWGQGTQVTVSSASHHHHHH | 0.45 Abs 630 | 0.34 Abs 630
8 | IL10R binding molecule of SEQ ID NO: 290 (bispecific antibody) QVQLQESGGGSVQAGGSLRLSCTVSGYTYSSNCMGWFRQAPGKEREGVATIYTGGGNTYYADSVKGRFTISQDNAKNTVYLQMNNLKPEDTAMYYCAAEPLSRVYGGSCPTPTFDYWGQGTQVTVSSGGGSQVQLQESGGGSVQTGGSLRLSCAASGYTYLRGCMGWFRQAPGKEREGVAVMDVVGDRRSYIDSVKGRFTISRDNAANSVYLQMDNLKPEDTAMYYCTAGPNCVGWRSGLDYWGQGTQVTVSSASHHHHHH | 0.49 Abs 630 | 0.37 Abs 630
9 | IL10R binding molecule of SEQ ID NO: 281 (bispecific antibody) QVQLQESGGGSVQAGGSLRLSCAVSGYAYSTYCMGWFRQAPGKEREGVAAIDSGGSTSYADSVKGRFTISKDNAKNTLYLRMNSLKPEDTAMYYCAAVPPPPDGGSCLFLGPEIKVSKADFRYWGQGTQVTVSSGGGSQVQLQESGGGSVEAGGSLRLSCAASGYTHSSYCMGWFRQAPGKEREGVAAIDVDGSTTYADSVKGRFTISKDNAKNTLYLQMNSLKPEDTGMYYCAAEFADCSSNYFLPPGAVRYWGQGTQVTVSSASHHHHHH | 0.66 Abs 630 | 0.69 Abs 630
10 | IL10R binding molecule of SEQ ID NO: 258 (bispecific antibody) QVQLQESGGGSVQAGGSLRLSCAASRYLYSIDYMAWFRQSPGKEREPVAVIYTASGATFYPDSVKGRFTISQDNAKMTVYLQMNSLKSEDTAMYYCAAVRKTDSYLFDAQSFTYWGQGTQVTVSSGGGSQVQLQESGGGSVQAGGSLRLSCAASRYTYNSYCMGWFRQAPGKEREGVATIDSDGMTRYADSVKGRFTISKDNAKNTLYLQMNSLKPEDTAMYYCAADADCTIAAMTTNPLGQGTQVTVSSASHHHHHH | 0.49 Abs 630 | 0.38 Abs 630
11 | IL10R binding molecule of SEQ ID NO: 293 (bispecific antibody) QVQLQESGGGSVQAGGSLRLSCGASGYTYSSYCMGWFRQVPGKEREGVAVIDSDGSTSYADSVKGRFTISKDNGKNTLYLQMNSLKPEDTAMYYCAADLGHYRPPCGVLYLGMDYWGKGTQVTVSSGGGSQVQLQESGGGSVQAGGSLRLSCAASRYTYNSYCMGWFRQAPGKEREGVATIDSDGMTRYADSVKGRFTISKDNAKNTLYLQMNSLKPEDTAMYYCAADADCTIAAMTTNPLGQGTQVTVSSASHHHHHH | 0.54 Abs 630 | 0.43 Abs 630
12 | IL10R binding molecule of SEQ ID NO: 287 (bispecific antibody) QVQLQESGGGSVQAGGSLRLSCTVSGYTYSSNCMGWFRQAPGKEREGVATIYTGGGNTYYADSVKGRFTISQDNAKNTVYLQMNNLKPEDTAMYYCAAEPLSRVYGGSCPTPTFDYWGQGTQVTVSSGGGSQVQLQESGGGSVQAGGSLRLSCTVSRYTASVNYMGWFRQAPGKEREGVATIFTGAGTTYYANSVKGRFTISRDNAKNTAYLQMNSLKPEDTAIYYCAVDFRGGLLYRPAYEYTYRGQGTQVTVSSASHHHHHH | 0.9 Abs 630 | 0.51 Abs 630
13 | IL10R binding molecule of SEQ ID NO: 283 (bispecific antibody) QVQLQESGGGSVQAGGSLRLSCAVSGYAYSTYCMGWFRQAPGKEREGVAAIDSGGSTSYADSVKGRFTISKDNAKNTLYLRMNSLKPEDTAMYYCAAVPPPPDGGSCLFLGPEIKVSKADFRYWGQGTQVTVSSGGGSQVQLQESGGGSVQTGGSLRLSCAASGYTYLRGCMGWFRQAPGKEREGVAVMDVVGDRRSYIDSVKGRFTISRDNAANSVYLQMDNLKPEDTAMYYCTAGPNCVGWRSGLDYWGQGTQVTVSSASHHHHHH | 0.48 Abs 630 | 0.39 Abs 630
14 | IL10R binding molecule of SEQ ID NO: 289 (bispecific antibody) QVQLQESGGGSVQAGGSLRLSCTVSGYTYSSNCMGWFRQAPGKEREGVATIYTGGGNTYYADSVKGRFTISQDNAKNTVYLQMNNLKPEDTAMYYCAAEPLSRVYGGSCPTPTFDYWGQGTQVTVSSGGGSQVQLQESGGGSVQAGGSLRLSCAASGYSYSSYCMGWFRQAPGKEREGVATIDSDGMTRYADSVKGRFTISKDNAKNTLYLQMNSLKPEDTAMYYCAAPLYDCDSGAVGRNPPYWGQGTQVTVSSASHHHHHH | 0.48 Abs 630 | 0.39 Abs 630
15 | IL10R binding molecule of SEQ ID NO: 288 (bispecific antibody) QVQLQESGGGSVQAGGSLRLSCTVSGYTYSSNCMGWFRQAPGKEREGVATIYTGGGNTYYADSVKGRFTISQDNAKNTVYLQMNNLKPEDTAMYYCAAEPLSRVYGGSCPTPTFDYWGQGTQVTVSSGGGSQVQLQESGGGSVEAGGSLRLSCAASGYTHSSYCMGWFRQAPGKEREGVAAIDVDGSTTYADSVKGRFTISKDNAKNTLYLQMNSLKPEDTGMYYCAAEFADCSSNYFLPPGAVRYWGQGTQVTVSSASHHHHHH | 0.5 Abs 630 | 0.44 Abs 630
16 | IL10R binding molecule of SEQ ID NO: 291 (bispecific antibody) QVQLQESGGGSVQAGGSLRLSCGASGYTYSSYCMGWFRQVPGKEREGVAVIDSDGSTSYADSVKGRFTISKDNGKNTLYLQMNSLKPEDTAMYYCAADLGHYRPPCGVLYLGMDYWGKGTQVTVSSGGGSQVQLQESGGGSVQAGGSLRLSCAASGYTYSSGCMGWFRQAPGKEREAVAAINSDGSTSYADSVKGRFTISKDNAKNTLYLQMNSLKPEDTAMYYCAAEPYCSGGYPRWSVAEFGYWGQGTQVTVSSASHHHHHH | 1.73 Abs 630 | 0.59 Abs 630
